Experimental data taken from US20190127480A1.
pEC50: −log10 of the molar value.

How the values were obtained:
[1] = biological target: human CD3 expressed on cells (Jurkat cells; human T-cells of PBMC) (human) (UniProt P09693); test: cell-based or functional assay
[2] = biological target: human CD3 expressed on cells (Jurkat cells; human T-cells of PBMC) (human) (UniProt P09693); test: FACS titration on Jurkat cells (CD3+ human T-cell line)
[3] = biological target: cynomolgus monkey CD3 expressed on monkey T-cells (PBMCs) (cynomolgus monkey) (UniProt Q95LI5); test: cell-based or functional assay
[4] = biological target: cynomolgus monkey CD3 expressed on monkey T-cells (PBMCs) (cynomolgus monkey) (UniProt Q95LI5); test: FACS titration on monkey PBMCs, gated on CD2+CD4+ T cells

Chain of human CD3 expressed on cells (Jurkat cells; human T-cells of PBMC) (human) (chain, as listed by the source, chain 1 of 4): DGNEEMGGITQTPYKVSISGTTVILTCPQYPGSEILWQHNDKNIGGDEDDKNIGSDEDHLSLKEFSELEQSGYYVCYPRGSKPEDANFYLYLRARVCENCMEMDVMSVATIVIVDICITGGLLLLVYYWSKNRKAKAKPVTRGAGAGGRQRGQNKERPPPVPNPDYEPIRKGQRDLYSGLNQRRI
Chain of human CD3 expressed on cells (Jurkat cells; human T-cells of PBMC) (human) (chain, as listed by the source, chain 2 of 4): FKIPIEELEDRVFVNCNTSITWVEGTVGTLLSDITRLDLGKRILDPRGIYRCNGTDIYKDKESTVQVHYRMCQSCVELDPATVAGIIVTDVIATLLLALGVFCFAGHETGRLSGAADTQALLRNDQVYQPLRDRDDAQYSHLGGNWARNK
Chain of human CD3 expressed on cells (Jurkat cells; human T-cells of PBMC) (human) (P09693 23-182, chain 3 of 4): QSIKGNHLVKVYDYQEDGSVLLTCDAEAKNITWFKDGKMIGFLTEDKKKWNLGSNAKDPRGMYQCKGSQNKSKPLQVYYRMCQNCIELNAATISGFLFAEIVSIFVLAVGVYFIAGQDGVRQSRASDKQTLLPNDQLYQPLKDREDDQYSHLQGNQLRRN
Chain of human CD3 expressed on cells (Jurkat cells; human T-cells of PBMC) (human) (P20963 22-164, chain 4 of 4): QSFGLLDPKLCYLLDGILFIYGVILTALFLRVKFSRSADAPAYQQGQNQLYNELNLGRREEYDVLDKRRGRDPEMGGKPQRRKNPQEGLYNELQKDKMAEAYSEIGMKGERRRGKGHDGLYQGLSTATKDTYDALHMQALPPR
Chain of cynomolgus monkey CD3 expressed on monkey T-cells (PBMCs) (cynomolgus monkey) (Q95LI5 22-198, chain 1 of 2): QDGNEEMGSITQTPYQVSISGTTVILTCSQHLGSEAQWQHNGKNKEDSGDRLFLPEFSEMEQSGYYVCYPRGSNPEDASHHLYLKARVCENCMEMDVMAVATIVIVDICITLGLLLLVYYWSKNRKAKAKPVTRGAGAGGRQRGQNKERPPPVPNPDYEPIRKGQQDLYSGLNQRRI
Chain of cynomolgus monkey CD3 expressed on monkey T-cells (PBMCs) (cynomolgus monkey) (Q95LI8 22-171, chain 2 of 2, further chain): as the sequence (chain, as listed by the source, chain 2 of 4) above, with I5V, N15K, I20V, S32T, D33N, I34N, T64A, S74N, V83L, H141R counted along it

Substance | U937 Cytotoxicity Human T-cells [1] | further results
Isotype Ctrl (irrelevant isotype matched antibody, human Fc mAb tables) | 0 pM | –
Isotype Ctrl (irrelevant isotype matched antibody, hybridoma mAb table) | 0 pM | –
Isotype Ctrl (irrelevant isotype matched antibody, monovalent 1-arm mAb tables) | 0 pM | –
OKT-3, mouse monoclonal antibody against human T-cell surface antigens (ATCC CRL-8001) | 2.35 pM | EC50 [M] hPBMC Proliferation [1]: 3.3e-13 M; pEC50 [2]: 9.71
SP34, commercially available mouse monoclonal antibody reactive against the epsilon chain of the T3 complex on human T lymphocyte cells | – | EC50 [M] mfPBMC Proliferation [3]: 1.71e-12 M; pEC50 [4]: 10.15
